# Assay results as given in patent publication US20210246204A1 (Alector, published 2021).
# Residue numbers refer to the chain shown, from its start.
# B1: S7AB-H8.27 (antibody, V domains shown)
# VH: QVQLVQSGAEVKKPGASVKVSCKASGYAFTMAWMNWVRQAPGQGLEWIGRIFPGYGHTNYAQKFQGRATLTEDTSTSTAYMELSSLRSEDTAVYYCARDYSDYYFDYWGQGTLVTVSS
# VL: DIQMTQSPSSLSASVGDRVTITCRASQDANTYLNWYQQKPGKAPKLLIYYTSRLHSGVPSRFSGSGSGTDYTLTISSLQPEDFATYYCQQGNLLPWTFGQGTKLEIK
# B2: S7AB-H8.28 (antibody, V domains shown)
# VH: B1 VH with M31G, A32Y, Y55L
# VL: B1 VL
# B3: S7AB-H8.29 (antibody, V domains shown)
# VH: B1 VH with M31A, Y55L
# VL: B1 VL
# B4: S7AB-H8.30 (antibody, V domains shown)
# VH: B1 VH with M31E
# VL: B1 VL
# B5: S7AB-H8.31 (antibody, V domains shown)
# VH: B1 VH with M31E, A32T, Y55L
# VL: B1 VL with A25G, A29I, N92G, L93T
# B6: S7AB-H8.32 (antibody, V domains shown)
# VH: B1 VH
# VL: B1 VL with A25G, A29I, N92G, L93T
# B7: S7AB-H8.33 (antibody, V domains shown)
# VH: B1 VH with M31G, A32Y, Y55L
# VL: B1 VL with A25G, A29I, N92G, L93T
# B8: S7AB-H8.34 (antibody, V domains shown)
# VH: B1 VH with M31A, Y55L
# VL: B1 VL with A25G, A29I, N92G, L93T
# Biological target: T1, histidine-tagged human Siglec-7 (NovoProtein) (human, UniProt Q9Y286 19-353)
# T1 construct: Bought protein; also called recombinant human Siglec-7; recombinant Siglec-7; not shown: histidine tag
# Experiment: BLI, antibody captured
# Protocol: In this assay, the humanized antibodies were compared directly to S7AB. Briefly, the antibodies were captured on anti-human or anti-mouse IgG Fc Biosensors (Pall ForteBio). Varying concentrations (0-100 nM) of histidine-tagged human Siglec-7 (NovoProtein) were then bound to the captured anti-Siglec-7 surface (200 s association time, 900 s dissociation time). Multi-concentration kinetic analysis was performed using a 1:1 interaction model to extract association and dissociation rate constants (kₐ and kd, respectively) for each antibody. Apparent affinity constants (KD) were calculated from the ratio kd/kₐ.
# The affinities of S7AB-H8 and variants S7AB-H8.1 through S7AB-H8.45 for human Siglec-7 were measured by BioLayer Interferometry according to the method described in Example 1 above.
# T1 sequence (Q9Y286 19-353 limits assumed): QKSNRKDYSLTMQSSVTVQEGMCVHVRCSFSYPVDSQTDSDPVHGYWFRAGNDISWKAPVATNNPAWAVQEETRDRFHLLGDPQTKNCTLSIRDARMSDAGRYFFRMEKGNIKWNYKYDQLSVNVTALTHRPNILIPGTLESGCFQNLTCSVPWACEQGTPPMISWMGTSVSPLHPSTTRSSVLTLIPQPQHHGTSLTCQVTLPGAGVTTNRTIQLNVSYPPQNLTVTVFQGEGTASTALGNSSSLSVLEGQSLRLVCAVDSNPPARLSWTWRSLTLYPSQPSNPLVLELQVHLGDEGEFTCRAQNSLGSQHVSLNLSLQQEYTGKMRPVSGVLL
Binder,Kd [pM],fold improvement over S7AB-H8 [fold],koff [s⁻¹],kon [M⁻¹ s⁻¹]
B1,100,10.5,1.56e-05,156000
B2,159,6.6,3.51e-05,221000
B3,263,4,4e-05,152000
B4,395,2.7,4.13e-05,105000
B5,742,1.4,0.000107,145000
B6,356,2.9,3.93e-05,111000
B7,326,3.2,7.64e-05,235000
B8,237,4.4,2.81e-05,119000

# Biological target: human Siglec-7 on primary human monocyte-derived dendritic cells (human, UniProt Q9Y286 19-467)
# Experiment: cell-based or functional assay
# human Siglec-7 on primary human monocyte-derived dendritic cells, sequence (Q9Y286 19-467): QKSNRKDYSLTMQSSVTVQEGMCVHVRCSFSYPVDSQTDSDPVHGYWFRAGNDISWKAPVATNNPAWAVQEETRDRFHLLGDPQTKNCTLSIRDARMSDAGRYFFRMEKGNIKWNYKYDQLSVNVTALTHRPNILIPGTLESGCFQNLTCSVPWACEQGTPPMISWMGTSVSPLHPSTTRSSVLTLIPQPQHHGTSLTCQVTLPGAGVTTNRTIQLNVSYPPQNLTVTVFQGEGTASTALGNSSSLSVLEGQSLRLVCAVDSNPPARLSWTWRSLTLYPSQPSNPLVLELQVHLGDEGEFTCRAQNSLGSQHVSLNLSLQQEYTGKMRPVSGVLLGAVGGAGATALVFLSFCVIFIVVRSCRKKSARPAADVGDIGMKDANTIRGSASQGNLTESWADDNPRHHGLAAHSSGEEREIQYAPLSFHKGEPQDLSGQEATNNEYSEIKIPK
Binder,Fold increase in potency compared to AB-H8 [fold],Fold increase in potency compared to Chimeric Ab [fold],Maximal downregulation (% Siglec-7 remaining) [%],"Receptor downregulation, (EC50) (pM)"
B1,3.6,10.9,2.9,93.7
B2,4.6,13.7,17,74.6
B3,6.7,20,3.7,51.1
B4,2.7,8.2,8.2,126
B5,2.4,7.2,10.5,143
B6,3.7,11.2,3.4,91.3
B7,5.2,15.7,17.2,65.3
B8,2.9,8.7,3.6,118
